In PMC3433420 one finds Kd data, which are given here for three substances.

One test concerns the target ABL2 SH2 domain (human) (UniProt P42684). The experiment in a line: peptide or protein array; SH2/PTB proteins spotted on aldehyde slides, rhodamine peptide titrated in buffer B (20 mM HEPES, 100 mM KCl, 0.1% Tween-20, 5 mM DTT, pH 7.8), 1 h at room temperature; replicate assays.
For the next test, the target named is BLK SH2 domain (human) (UniProt P51451). The test is described as above.
Another test concerns the target BLNK SH2 domain (human) (UniProt Q8WV28). The test is described as above.
A further test concerns the target BTK SH2 domain (human) (UniProt Q06187). The description is as above.
A further test addresses HCK SH2 domain (human) (UniProt P08631). Described as above.
The target in a further test is NCK1 SH2 domain (human) (UniProt P16333). The test is described as above.
Test [1] concerns the target PIK3R2 tandem SH2 domains (human) (UniProt O00459). Described as above.
Test [2] deals with PLCG2 tandem SH2 domains (human). Described as above.
In another test the target is PTK6 SH2 domain (human) (UniProt Q13882). The test is described as above.
Sequence of PTK6 SH2 domain (human) (Q13882 78-170): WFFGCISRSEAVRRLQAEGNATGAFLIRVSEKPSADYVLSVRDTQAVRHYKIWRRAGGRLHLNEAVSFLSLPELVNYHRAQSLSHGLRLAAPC
Test [3] addresses PTPN6 tandem SH2 domains (human). The test is described as above.
Test [4] deals with RASA1 N-terminal SH2 domain (human) (UniProt P20936). Described as above.
Sequence of RASA1 N-terminal SH2 domain (human) (P20936 whole entry, the tested form may be a part): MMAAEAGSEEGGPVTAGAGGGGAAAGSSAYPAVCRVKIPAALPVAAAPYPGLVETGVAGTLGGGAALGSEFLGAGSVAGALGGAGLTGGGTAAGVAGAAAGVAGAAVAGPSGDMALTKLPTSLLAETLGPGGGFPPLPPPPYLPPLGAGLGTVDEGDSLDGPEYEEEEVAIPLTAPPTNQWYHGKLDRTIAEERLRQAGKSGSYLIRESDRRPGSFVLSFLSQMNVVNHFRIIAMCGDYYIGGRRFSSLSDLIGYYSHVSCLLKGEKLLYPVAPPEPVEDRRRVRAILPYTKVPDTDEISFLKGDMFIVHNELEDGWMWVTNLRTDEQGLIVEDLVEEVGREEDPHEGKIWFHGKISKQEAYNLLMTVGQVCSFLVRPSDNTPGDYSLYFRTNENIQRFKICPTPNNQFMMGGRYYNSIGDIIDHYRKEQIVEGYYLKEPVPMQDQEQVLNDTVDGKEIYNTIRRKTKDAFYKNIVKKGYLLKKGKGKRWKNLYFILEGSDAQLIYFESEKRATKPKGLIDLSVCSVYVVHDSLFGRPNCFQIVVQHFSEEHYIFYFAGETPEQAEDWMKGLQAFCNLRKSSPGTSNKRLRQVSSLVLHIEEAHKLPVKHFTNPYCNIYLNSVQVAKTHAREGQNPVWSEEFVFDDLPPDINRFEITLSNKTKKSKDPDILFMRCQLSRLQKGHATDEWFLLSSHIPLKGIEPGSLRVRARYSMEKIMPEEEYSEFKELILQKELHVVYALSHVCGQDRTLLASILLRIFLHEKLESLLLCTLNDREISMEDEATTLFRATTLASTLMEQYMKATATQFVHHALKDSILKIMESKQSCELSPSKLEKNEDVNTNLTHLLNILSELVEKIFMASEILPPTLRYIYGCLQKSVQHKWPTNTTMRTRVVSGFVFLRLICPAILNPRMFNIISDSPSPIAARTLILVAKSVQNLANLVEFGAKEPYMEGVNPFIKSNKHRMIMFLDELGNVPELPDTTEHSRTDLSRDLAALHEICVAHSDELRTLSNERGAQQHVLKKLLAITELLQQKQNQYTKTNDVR
The target in test [5] is RASA1 tandem SH2 domains (human). The description is as above.
The target in test [6] is SH2D1A SH2 domain (human) (UniProt O60880). The test is described as above.
Sequence of SH2D1A SH2 domain (human) (O60880 6-104): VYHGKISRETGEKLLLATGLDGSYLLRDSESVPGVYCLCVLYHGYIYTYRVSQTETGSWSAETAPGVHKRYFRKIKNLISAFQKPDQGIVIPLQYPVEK
The target of test [7] is SH2D3A SH2 domain (human) (UniProt Q9BRG2). The description is as above.
Sequence of SH2D3A SH2 domain (human) (Q9BRG2 15-114): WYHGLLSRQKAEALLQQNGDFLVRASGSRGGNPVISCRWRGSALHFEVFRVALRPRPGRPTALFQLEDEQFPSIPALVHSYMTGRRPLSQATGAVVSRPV
Test [8] has as its target SH2D3C SH2 domain (human) (UniProt Q8N5H7). The description is as above.
For test [9], the target named is SH3BP2 SH2 domain (human) (UniProt P78314). The test is described as above.
Sequence of SH3BP2 SH2 domain (human) (P78314 457-555): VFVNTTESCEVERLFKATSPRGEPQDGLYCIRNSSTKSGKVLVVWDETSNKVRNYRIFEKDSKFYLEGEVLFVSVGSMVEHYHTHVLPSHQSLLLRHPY
Another test deals with SHF SH2 domain (human) (UniProt Q7M4L6). The test is described as above.
Sequence of SHF SH2 domain (human) (Q7M4L6 323-418): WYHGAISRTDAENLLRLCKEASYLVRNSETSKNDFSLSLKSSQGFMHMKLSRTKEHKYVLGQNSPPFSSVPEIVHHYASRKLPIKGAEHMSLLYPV
A further test deals with SRC SH2 domain (human) (UniProt P12931). The description is as above.
Test [10] concerns the target SYK C-terminal SH2 domain (human). The description is as above.
In test [11] the target is SYK N-terminal SH2 domain (human). The test is described as above.
Test [12] concerns the target SYK tandem SH2 domains (human). Described as above.
Another test concerns the target TEC SH2 domain (human) (UniProt P42680). The test is described as above.
A further test deals with TNS1 SH2 domain (human) (UniProt Q9HBL0). The test is described as above.
Sequence of TNS1 SH2 domain (human) (Q9HBL0 1567-1676): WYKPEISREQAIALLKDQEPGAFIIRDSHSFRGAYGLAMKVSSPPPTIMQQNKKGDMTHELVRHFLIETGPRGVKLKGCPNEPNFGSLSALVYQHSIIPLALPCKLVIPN
The target of a further test is YES1 SH2 domain (human) (UniProt P07947). The description is as above.
Sequence of YES1 SH2 domain (human) (P07947 158-255): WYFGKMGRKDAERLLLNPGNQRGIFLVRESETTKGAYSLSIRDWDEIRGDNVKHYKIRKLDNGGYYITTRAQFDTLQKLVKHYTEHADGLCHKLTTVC
The target of test [13] is ErbB2 Y1221 non-phosphorylated peptide, rhodamine-labelled (human). The experiment in a line: fluorescence polarisation; saturation binding in solution: rhodamine peptide fixed at 10 nM, protein titrated 0.002-10 uM, 20 min at room temperature; assay buffer 20 mM HEPES, 100 mM KCl, 0.1% Tween-20, 5 mM DTT, pH 7.8; apparent KD. In general terms: In fluorescence polarisation assays a small probe gives low polarisation when free and higher when bound to something large.

The target in test [14] is ErbB2pY1196 phosphopeptide, rhodamine-labelled (human). Described as above.
In test [15] the target is ErbB3pY1307 phosphopeptide, rhodamine-labelled (human). The description is as above.
The target in test [16] is ErbB2 Y735 non-phosphorylated peptide, rhodamine-labelled (human). The description is as above.

pKd: −log10 of the molar value. Several values for one entry are separate records, joined by “and”; a condition that tells them apart may be missing. Equal entries are not always repeated.

Sequence of BLK SH2 domain (human) (P51451 124-220): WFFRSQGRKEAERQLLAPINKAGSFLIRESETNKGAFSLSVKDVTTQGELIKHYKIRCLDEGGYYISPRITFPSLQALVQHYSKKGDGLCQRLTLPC
Sequence of TEC SH2 domain (human) (P42680 247-345): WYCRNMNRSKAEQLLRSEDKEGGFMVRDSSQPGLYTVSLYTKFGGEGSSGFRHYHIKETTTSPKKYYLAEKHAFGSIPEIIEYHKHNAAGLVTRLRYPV
Sequence of SH2D3C SH2 domain (human) (Q8N5H7 220-319): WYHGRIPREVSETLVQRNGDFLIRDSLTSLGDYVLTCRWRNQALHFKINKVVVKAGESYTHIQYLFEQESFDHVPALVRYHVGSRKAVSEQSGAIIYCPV
Sequence of BLNK SH2 domain (human) (Q8WV28 346-453): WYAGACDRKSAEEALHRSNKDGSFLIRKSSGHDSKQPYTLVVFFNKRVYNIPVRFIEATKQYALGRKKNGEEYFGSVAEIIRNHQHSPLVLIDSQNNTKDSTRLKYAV
Sequence of PIK3R2 tandem SH2 domains (human) (O00459 whole entry, the tested form may be a part): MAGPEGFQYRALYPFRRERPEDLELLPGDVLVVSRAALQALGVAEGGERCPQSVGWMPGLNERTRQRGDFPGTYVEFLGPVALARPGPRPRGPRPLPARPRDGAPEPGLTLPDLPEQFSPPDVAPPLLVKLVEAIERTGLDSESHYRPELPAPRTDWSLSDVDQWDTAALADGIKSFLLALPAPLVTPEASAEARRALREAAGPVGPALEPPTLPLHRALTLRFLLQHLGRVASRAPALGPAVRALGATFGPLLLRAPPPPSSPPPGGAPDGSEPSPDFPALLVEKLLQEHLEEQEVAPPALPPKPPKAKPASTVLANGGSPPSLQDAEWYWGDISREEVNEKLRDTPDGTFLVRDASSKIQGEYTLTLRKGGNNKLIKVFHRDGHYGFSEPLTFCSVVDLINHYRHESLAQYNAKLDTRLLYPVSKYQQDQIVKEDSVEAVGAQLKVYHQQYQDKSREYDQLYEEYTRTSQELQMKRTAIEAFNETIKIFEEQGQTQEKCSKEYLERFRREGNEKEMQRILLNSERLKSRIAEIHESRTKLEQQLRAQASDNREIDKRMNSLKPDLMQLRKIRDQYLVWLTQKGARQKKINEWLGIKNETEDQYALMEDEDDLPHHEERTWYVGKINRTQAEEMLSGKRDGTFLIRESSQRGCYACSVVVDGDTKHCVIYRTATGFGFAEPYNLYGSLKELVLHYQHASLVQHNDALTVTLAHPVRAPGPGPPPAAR
Sequence of ABL2 SH2 domain (human) (P42684 173-263): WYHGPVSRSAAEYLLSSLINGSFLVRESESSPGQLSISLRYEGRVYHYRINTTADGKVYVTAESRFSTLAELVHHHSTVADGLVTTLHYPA
Sequence of BTK SH2 domain (human) (Q06187 281-377): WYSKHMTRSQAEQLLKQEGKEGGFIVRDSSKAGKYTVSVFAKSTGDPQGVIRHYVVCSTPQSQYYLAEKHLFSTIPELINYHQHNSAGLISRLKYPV
Sequence of HCK SH2 domain (human) (P08631 144-241): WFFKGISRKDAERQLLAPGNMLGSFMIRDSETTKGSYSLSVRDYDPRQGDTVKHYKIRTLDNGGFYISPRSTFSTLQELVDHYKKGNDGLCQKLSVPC

What is called pKd is the Kd on a negative log10 scale, so that one unit is a factor of ten. Turning to “ErbB2 pY735 phosphopeptide, rhodamine-labelled, for protein microarrays”, the pKd was 5.99 with ABL2 SH2 domain (human); 6.10 and 6.29 in the test with BLK SH2 domain (human); 4.33 with BLNK SH2 domain (human); 5.82 in the test with BTK SH2 domain (human); 6.05 with HCK SH2 domain (human); 5.28 in the test with NCK1 SH2 domain (human). Also, the pKd is 5.83 in test [1]; 6.24 and 5.54 and 5.99 in [2]; 6.10 with PTK6 SH2 domain (human); 5.27 in test [3]; 5.46 in test [4]; 4.09 in [5]. In addition, the pKd is 6.13 and 5.79 in test [6]; 6.11 in [7]; 4.56 in test [8]; 5.41 and 5.80 and 6.20 in [9]; 6.03 and 5.36 with SHF SH2 domain (human); 5.92 with SRC SH2 domain (human). For the same substance, the pKd is 6.04 in test [10]; 6.10 and 5.52 in test [11]; 6.23 and 6.09 in test [12]; 5.49 and 5.06 in the test with TEC SH2 domain (human); 5.80 with TNS1 SH2 domain (human); 6.28 and 5.79 in the test with YES1 SH2 domain (human).
As for “RASA1 N-terminal SH2 domain (from UniProt P20936 1-1047) (domain or fragment)”, the pKd was 5.43 in test [13], 5.73 in [14] and 5.73 in test [15].
With “ZAP70 C-terminal SH2 domain (from UniProt P43403 1-619) (domain or fragment)”, in test [16], the pKd is 4.83.
